Laboratory results: article PMC3905845, “Intracellular dynamics of archaeal FANCM homologue Hef in response to halted DNA replication” (Nucleic Acids Research, 2013)

Target: the molecule itself
Experiment: AUC; sedimentation velocity (0.9, 1 and 1.6 mg/ml) and sedimentation equilibrium (0.6 or 1 mg/ml) at 20°C in buffer C (2M KCl, 10 mM Hepes, pH 7.0), absorbance at 280 nm; SEDFIT and SEDPHAT

B1: Haloferax volcanii Hef protein (helicase-associated endonuclease fork-structure DNA), full length with a six-histidine tag (natural protein, UniProt D4GYC2 1-858, looked up)
chain: MSASEDVAYVDHPLLAPSFIERRLYQIRLAGTARDGHTLVCLPTGLGKTTVSLLVTAQRLHDVGGKSLFLAPTKPLVQQHADFYREALTVPDDEIVVFTGDVRPDDRAELWQEAQIVIATPQVIENDLIGNRISLRDVTHLTFDECHRASGDYAYVYIAERYHAAAENPLVTGMSASPGGDEEAILEVCENLGIVDVEVMTEEDADVSEYTHDTDVEWNRIQLPDEILEIRDALNEVITDRLEKLKQLGVTKSTKPDISQKKLNRMRAELQRLMNADKSEGYKGMSTHAEVMKLRRAVELVETQSVESVRRYFERQRNAARSSGASKASQRLVAEPKVREAMRKAESFDGLHPKFRKTRILLAETLGIQNGERVIVFTESRDTAEALTEFLSESFSVRRFVGQGDREGSDGMTQNEQQETLDKFRNGEFEVLVSTSVAEEGLDVPEVDLVLFFEPVPTAIRSIQRKGRTGRQADGRVVVLLAEDTRDEAYFWISRRREKTMQNELRDLKGAADDLEAELDPSQRDLSAFAGDDASSAGSAGSSTRNEGVDVASEGDANGASATASSASNGRTATAAATDSDGQSGLADFGPSDEALARADDGDDSHGEDADPADSGDDPASDAEGDEVDDSATVAAAGTDDEDTVEIVVDQRELDSNIARTLSKREDLTTRLETLAVGDYVLSDRVAVERKSVSDFLDTLTGGDRSIFEQIADLTRHYARPLLVIEGRGLYEERNIHPGAIRGALSSVAVDFNVSVLFTEDEDDTAELLATIATREQTDRERTVSVHGGKSAKTLDEQQEYVVSAIADIGPVTARTLLEAFGSVEAVMTANEEDLKEVRGVGQVTAERIREVVGSEYR
notes: Hef helicase/endonuclease of the XPF/MUS81/FANCM family, Haloferax volcanii; full-length protein; predicted monomeric molecular mass 93.95 kDa; hef amplified from plasmid pTA1097 and cloned into pTA963 (PciI-EcoRI); also called HvoHef; Hef holoprotein; source: H. volcanii (native host, strain lacking hef, tryptophan-induced), purified (Ni-NTA agarose, S-200 gel filtration)
For B1, the “stoichiometry N” value was 2.
